Reference: US20220175781A1, “CD40L COMPOSITIONS AND METHODS FOR TUNABLE REGULATION” (Obsidian Therapeutics, Inc., priority 2019, published 2022)
“And” between values parts separate entries of the source, which are not always exact repeats. Equal values may be shown once.

Tests used:
T cells [1] = experiment: % CD40L positive cells in vivo, transduced T cells in NSG mice dosed with TMP; parameters: species or system NSG female mice
Protocol: Based on the in vitro data, regulatability of CD40L constructs in vivo was tested. 10-week old NSG female mice were injected with T cells transduced with one of the following constructs empty vector, OT-001661, and OT-001662 (day 0). On day 1, mice were pre-bled prior to dose with ligand. On day 2, mice were dosed every 4 hours with TMP at 500 mg/kg body weight of the mouse or vehicle control. Two hours after every dose, blood was collected from the mice to measure CD40L levels. On day 3, i.e. 24 hours after the first dose, mice were terminally bled for analysis. The values in bold represent the average values for each bleed.

Jurkat cells = experiment: Surface expression of CD40L by FACS in lentivirally transduced Jurkat cells; assay type: cell-based; settings: FACS
Protocol: 50,000 Jurkat cells were transduced with lentiviruses corresponding to the constructs. OT-001661, OT-001685, OT-001662, or OT-001666 and cultured for 48h. Cells were split and incubated with ligands for 24h before analysis by flow cytometry.
Jurkat cells were treated with one of the following: 1 μM Shield-1, 50 μM TMP, 1 μM Bazedoxifene (BZD) or vehicle control. Surface expression of CD40L was measured using FACS and the results are show in Table 9. All values were normalized to mode.

CD8+ T cells = experiment: Ligand dose response, % CD40L positive cells, CD8+ T cells; assay type: cell-based
Protocol: (§1) Ligand dose response curve experiments were performed with increasing doses of ligand using OT-001662 and OT-001666 constructs in both CD4+ as well as CD8+ T cells.
(§2) The experiments were conducted using three different volumes of virus for transduction i.e. 0.5, 2 and 10 μL.

T cells [2] = experiment: Dose response of TMP, Bazedoxifene or Raloxifene, % CD40L positive T cells; assay type: cell-based; settings: T cells
Protocol: T cells were transduced with OT-001662 or OT-001666. On day 4, cells were treated with increasing doses of TMP for T cells expressing OT-001662. Cells expressing OT-001666 were treated either with increasing concentrations of Bazedoxifene or Raloxifene. The data are shown in Table 30 as the percentage of CD40L positive T cells.

HEK-Blue™ CD40 cells = experiment: HEK-Blue CD40 SEAP reporter co-culture with transduced Jurkat cells; assay type: cell-based; settings: ligand 24 h (1 μM Shield-1, 50 μM TMP or 1 μM Bazedoxifene), recombinant soluble CD40L as standard
Protocol: Jurkat cells transduced with OT-001661, OT-001685, OT-001662, OT-001666, or OT-001667 were co-cultured with HEK-Blue™ CD40 cells (Invivogen, San Diego, Calif.). Cocultures were treated with ligands (1 μM Shield-1, 50 μM TMP, 1 μM Bazedoxifene (BZD) or vehicle control) for 24 hours and the secreted embryonic alkaline phosphatase (SEAP) reporter levels were measured in the media. All vehicle treated samples had background SEAP activity. Recombinant soluble CD40L was used as the standard in the experiments.

CD4+ T cells = experiment: Ligand dose response, % CD40L positive cells, CD4+ T cells; assay type: cell-based
Protocol: as §1, §2

[3] = system: T cells (CD4 and CD8 positive); experiment: CD40L MFI in vitro in CD4 and CD8 positive T cells, 10 μM TMP; assay type: cell-based
Protocol: T cells were transduced with OT-001662 and then treated with 10 μM TMP on day 4. CD40L expression was analyzed by FACS both in the CD4 and CD8 positive T cell populations.

[4] = ligand 24 h (1 μM Shield-1 OT-001685, 50 μM TMP OT-001662, 1 μM Bazedoxifene OT-001666)
[5] = vehicle 24 h (Ethanol 0.2% OT-001685, DMSO 0.5% OT-001662, DMSO 0.01% OT-001666)

B1: OT-001662: CD40L construct with ecDHFR (M1del, R12Y, Y100I) DRD, ligand TMP (protein)
chain: MSGISLIAALAVDYVIGMENAMPWNLPADLAWFKRNTLNKPVIMGRHTWESIGRPLPGRKNIILSSQPGTDDRVTWVKSVDEAIAACGDVPEIMVIGGGRVIEQFLPKAQKLYLTHIDAEVEGDTHFPDYEPDDWESVFSEFHDADAQNSHSYCFEILERRHMIETYNQTSPRSAATGLPISMKIFMYLLTVFLITQMIGSALFAVYLHRRLDKIEDERNLHEDFVFMKTIQRCNTGERSLSLLNCEEIKSQFEGFVKDIMLNKEETKKENSFEMQKGDQNPQIAAHVISEASSKTTSVLQWAEKGYYTMSNNLVTLENGKQLTVKRQGLYYIYAQVTFCSNREASSQAPFIASLCLKSPGRFERILLRAANTHSSAKPCGQQSIHLGGVFELQPGASVFVNVTDPSQVSHGTGFTSFGLLKL
% CD40L positive cells in vivo (T cells [1]; 0 hours, average, TMP 500 mg/kg every 4 hours): 1.0% | % CD40L positive cells in vivo (T cells [1]; 0 hours, average, Vehicle): 0.9% | % CD40L positive cells in vivo (T cells [1]; 0 hours, individual values, TMP 500 mg/kg every 4 hours): 0.9% (2×) and 0.4% and 1.8% | % CD40L positive cells in vivo (T cells [1]; 0 hours, individual values, Vehicle): 0.8% and 0.9% and 0.1% and 1.8% | % CD40L positive cells in vivo (T cells [1]; 2 hours, average, TMP 500 mg/kg every 4 hours): 8.6% | % CD40L positive cells in vivo (T cells [1]; 2 hours, average, Vehicle): 0.9% | % CD40L positive cells in vivo (T cells [1]; 2 hours, individual values, TMP 500 mg/kg every 4 hours): 11.8% and 13.0% and 9.6% and 0.0% | % CD40L positive cells in vivo (T cells [1]; 2 hours, individual values, Vehicle): 0.6% and 1.0% and 0.0% and 1.9% | % CD40L positive cells in vivo (T cells [1]; 6 hours, average, TMP 500 mg/kg every 4 hours): 19.9% | % CD40L positive cells in vivo (T cells [1]; 6 hours, average, Vehicle): 0.3% | % CD40L positive cells in vivo (T cells [1]; 6 hours, individual values, TMP 500 mg/kg every 4 hours): 22.1% and 25.7% and 13.8% and 18.0% | % CD40L positive cells in vivo (T cells [1]; 6 hours, individual values, Vehicle): 0.3% and 0.4% and 0.5% and 0.2% | % CD40L positive cells in vivo (T cells [1]; 10 hours, average, TMP 500 mg/kg every 4 hours): 20.1% | % CD40L positive cells in vivo (T cells [1]; 10 hours, average, Vehicle): 0.1% | % CD40L positive cells in vivo (T cells [1]; 10 hours, individual values, TMP 500 mg/kg every 4 hours): 26.0% and 21.4% and 0.0% and 33.1% | % CD40L positive cells in vivo (T cells [1]; 10 hours, individual values, Vehicle): 0.0% (3×) and 0.3% | % CD40L positive cells in vivo (T cells [1]; 24 hours, average, TMP 500 mg/kg every 4 hours): 12.0% | % CD40L positive cells in vivo (T cells [1]; 24 hours, average, Vehicle): 0.6% | % CD40L positive cells in vivo (T cells [1]; 24 hours, individual values, TMP 500 mg/kg every 4 hours): 1.2% and 0.8% and 18.9% and 27.2% | % CD40L positive cells in vivo (T cells [1]; 24 hours, individual values, Vehicle): 0.0% and 0.3% and 1.4% and 0.7% | CD40L positive percent of live cells (Jurkat cells; [4]): 98.4% | Geometric Mean of CD40L fluorescent intensity (Jurkat cells; [4]): 6068 | CD40L positive percent of live cells (Jurkat cells; [5]): 0.023% | Geometric Mean of CD40L fluorescent intensity (Jurkat cells; [5]): 27.9 | % CD40L positive cells (CD8+ T cells; 0.5 μL virus, TMP 0.05 nM): 0.16% | % CD40L positive cells (CD8+ T cells; 0.5 μL virus, TMP 0.5 nM): 0.17% | % CD40L positive cells (CD8+ T cells; 0.5 μL virus, TMP 5 nM): 0.12% | % CD40L positive cells (CD8+ T cells; 0.5 μL virus, TMP 50 nM): 0.19% | % CD40L positive cells (CD8+ T cells; 0.5 μL virus, TMP 500 nM): 0.66% | % CD40L positive cells (CD8+ T cells; 0.5 μL virus, TMP 5000 nM): 9.21% | % CD40L positive cells (CD8+ T cells; 0.5 μL virus, TMP 50000 nM): 25.2% | % CD40L positive cells (CD8+ T cells; 2 μL virus, TMP 0.05 nM): 0.2% | % CD40L positive cells (CD8+ T cells; 2 μL virus, TMP 0.5 nM): 0.34% | % CD40L positive cells (CD8+ T cells; 2 μL virus, TMP 5 nM): 0.3% | % CD40L positive cells (CD8+ T cells; 2 μL virus, TMP 50 nM): 0.64% | % CD40L positive cells (CD8+ T cells; 2 μL virus, TMP 500 nM): 6.84% | % CD40L positive cells (CD8+ T cells; 2 μL virus, TMP 5000 nM): 40.6% | % CD40L positive cells (CD8+ T cells; 2 μL virus, TMP 50000 nM): 51% | % CD40L positive cells (CD8+ T cells; 10 μL virus, TMP 0.05 nM): 0.95% | % CD40L positive cells (CD8+ T cells; 10 μL virus, TMP 0.5 nM): 1.08% | % CD40L positive cells (CD8+ T cells; 10 μL virus, TMP 5 nM): 1.02% | % CD40L positive cells (CD8+ T cells; 10 μL virus, TMP 50 nM): 1.07% | % CD40L positive cells (CD8+ T cells; 10 μL virus, TMP 500 nM): 5.53% | % CD40L positive cells (CD8+ T cells; 10 μL virus, TMP 5000 nM): 47.4% | % CD40L positive cells (CD8+ T cells; 10 μL virus, TMP 50000 nM): 59.4% | % CD40L positive T cells, dose response (T cells [2]; increasing doses of TMP): dose dependent increase | Percent of cells expressing CD40L (T cells [2]; TMP Dose 0.01 μM): 8.74% | Percent of cells expressing CD40L (T cells [2]; TMP Dose 0.1 μM): 13.3% | Percent of cells expressing CD40L (T cells [2]; TMP Dose 1 μM): 38.8% | Percent of cells expressing CD40L (T cells [2]; TMP Dose 10 μM): 71% | Percent of cells expressing CD40L (T cells [2]; TMP Dose 100 μM): 73.3% | Soluble CD40L (HEK-Blue™ CD40 cells): 8657.75 pg/mL | % CD40L positive cells (CD4+ T cells; 0.5 μL virus, TMP 0.05 nM): 31.6% | % CD40L positive cells (CD4+ T cells; 0.5 μL virus, TMP 0.5 nM): 32% | % CD40L positive cells (CD4+ T cells; 0.5 μL virus, TMP 5 nM): 33.9% | % CD40L positive cells (CD4+ T cells; 0.5 μL virus, TMP 50 nM): 35.7% | % CD40L positive cells (CD4+ T cells; 0.5 μL virus, TMP 500 nM): 48.2% | % CD40L positive cells (CD4+ T cells; 0.5 μL virus, TMP 5000 nM): 67% | % CD40L positive cells (CD4+ T cells; 0.5 μL virus, TMP 50000 nM): 68.9% | % CD40L positive cells (CD4+ T cells; 2 μL virus, TMP 0.05 nM): 25.1% | % CD40L positive cells (CD4+ T cells; 2 μL virus, TMP 0.5 nM): 24.4% | % CD40L positive cells (CD4+ T cells; 2 μL virus, TMP 5 nM): 27.6% | % CD40L positive cells (CD4+ T cells; 2 μL virus, TMP 50 nM): 37.4% | % CD40L positive cells (CD4+ T cells; 2 μL virus, TMP 500 nM): 68.4% | % CD40L positive cells (CD4+ T cells; 2 μL virus, TMP 5000 nM): 76.8% | % CD40L positive cells (CD4+ T cells; 2 μL virus, TMP 50000 nM): 76.8% | % CD40L positive cells (CD4+ T cells; 10 μL virus, TMP 0.05 nM): 23.8% | % CD40L positive cells (CD4+ T cells; 10 μL virus, TMP 0.5 nM): 24.2% | % CD40L positive cells (CD4+ T cells; 10 μL virus, TMP 5 nM): 24.6% | % CD40L positive cells (CD4+ T cells; 10 μL virus, TMP 50 nM): 30.7% | % CD40L positive cells (CD4+ T cells; 10 μL virus, TMP 500 nM): 58.5% | % CD40L positive cells (CD4+ T cells; 10 μL virus, TMP 5000 nM): 79.1% | % CD40L positive cells (CD4+ T cells; 10 μL virus, TMP 50000 nM): 78.8% | CD40L MFI in vitro ([3]; CD4+, TMP (10 μM)): 10159 | CD40L MFI in vitro ([3]; CD4+, Vehicle): 348 | CD40L MFI in vitro ([3]; CD8+, TMP (10 μM)): 4893 | CD40L MFI in vitro ([3]; CD8+, Vehicle): 182
